These results are taken from patent publication US20260250381A1.

Assay [1] concerns the target T1, human TREM2 (human) (UniProt Q9NZC2).
T1 sequence (looked up): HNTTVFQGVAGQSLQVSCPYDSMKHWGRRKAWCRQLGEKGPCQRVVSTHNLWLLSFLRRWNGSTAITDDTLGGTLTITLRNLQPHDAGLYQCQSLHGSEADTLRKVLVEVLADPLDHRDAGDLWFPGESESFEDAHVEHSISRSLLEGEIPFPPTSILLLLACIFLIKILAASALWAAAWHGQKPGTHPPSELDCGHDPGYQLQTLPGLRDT
Put plainly: 2nd screen, 2 nM Ab.

Assay [2] concerns the target T1, human TREM2 (human). Put plainly: 2nd screen, 10 nM Ab.
In assay [3] the target is T1, human TREM2 (human). Put plainly: 1st screen, 10 nM Ab.

B1: 6E7 variant V38 (antibody, V domains shown)
VH: EVQLVQSGAEVKKPGESLKISCKGSGYSFGSYWIAWVRQMPGKGLEWMGIIYPGDSDVRYSPSFQGQVTISADKSISTAYLQWSSLKASDTAMYFCARQRTFYYDSSDYFDYWGQGTLVTVSS
VL: DIQMTQSPSSVSASVGDRVTITCRASQGISSWLAWYQQKPGKAPKLLIYAASSRQNGVPSRFSGSGSGTDFTLTISSLQPEDFATYFCQQADSHPRTFGQGTKLEIK
Turning to B1, the Binding Signal (fold over 6E7 parental antibody) in the assay with human TREM2 (human) [1] amounted to 3.44 fold; in the assay with human TREM2 (human) [2], 4.36 fold; with human TREM2 (human) [3], 4.34 fold.

B2: 6E7 variant V48 (antibody, V domains shown)
VH: EVQLVQSGAEVKKPGESLKISCKGSGYSFGSYWIAWVRQMPGKGLEWMGIIYPGDSDVRYSPSFQGQVTISADKSISTAYLQWSSLKASDTAMYFCARMRTFYYDSSDYFDYWGQGTLVTVSS
VL: DIQMTQSPSSVSASVGDRVTITCRASQGISSWLAWYQQKPGKAPKLLIYAASSLQTGVPSRFSGSGSGTDFTLTISSLQPEDFATYFCQQADSLPRTFGQGTKLEIK
B2: the Binding Signal (fold over 6E7 parental antibody) came out at 2.3 fold with human TREM2 (human) [1], 2.54 fold with human TREM2 (human) [2] and 2.42 fold with human TREM2 (human) [3].

B3: 6E7 variant V65 (antibody, V domains shown)
VH: EVQLVQSGAEVKKPGESLKISCKGSGYSFTSYWIAWVRQMPGKGLEWMGIIYPGDSDTRYSPSFQGQVTISADKSISTAYLQWSSLKASDTAMYFCARSRTFYYDSSDYFDYWGQGTLVTVSS
VL: DIQMTQSPSSVSASVGDRVTITCRASQGISSWLAWYQQKPGKAPKLLIYAASSLQNGVPSRFSGSGSGTDFTLTISSLQPEDFATYFCQQADSFPRTFGQGTKLEIK
With B3, the Binding Signal (fold over 6E7 parental antibody) with human TREM2 (human) [1] turned out to be 1.29 fold; with human TREM2 (human) [2], 2.75 fold; with human TREM2 (human) [3], 2.05 fold.

B4: 6E7 variant V64 (antibody, V domains shown)
VH: EVQLVQSGAEVKKPGESLKISCKGSGYSFQSYWIAWVRQMPGKGLEWMGIIYPGDSDTRYSPSFQGQVTISADKSISTAYLQWSSLKASDTAMYFCARGRTFYYDSSDYFDYWGQGTLVTVSS
VL: DIQMTQSPSSVSASVGDRVTITCRASQGISSWLAWYQQKPGKAPKLLIYAASSLANGVPSRFSGSGSGTDFTLTISSLQPEDFATYFCQQADSYPRTFGQGTKLEIK
As to B4, the Binding Signal (fold over 6E7 parental antibody) amounted to 4.88 fold in the assay with human TREM2 (human) [1], 5.48 fold with human TREM2 (human) [2] and 5.41 fold with human TREM2 (human) [3].

B5: 6E7 variant V51 (antibody, V domains shown)
VH: EVQLVQSGAEVKKPGESLKISCKGSGYSFTSYWIAWVRQMPGKGLEWMGIIYPGDSDVRYSPSFQGQVTISADKSISTAYLQWSSLKASDTAMYFCARGRTFYYDSSDYFDNWGQGTLVTVSS
VL: DIQMTQSPSSVSASVGDRVTITCRASQGISSWLAWYQQKPGKAPKLLIYAASSRQNGVPSRFSGSGSGTDFTLTISSLQPEDFATYFCQQADSFPRTFGQGTKLEIK
For B5, the Binding Signal (fold over 6E7 parental antibody) came out at 1.83 fold in the assay with human TREM2 (human) [1], 3.18 fold with human TREM2 (human) [2] and 2.81 fold in the assay with human TREM2 (human) [3].

B6: 6E7 variant V60 (antibody, V domains shown)
VH: EVQLVQSGAEVKKPGESLKISCKGSGYHFTSYWIAWVRQMPGKGLEWMGIIYPGDSDVRYSPSFQGQVTISADKSISTAYLQWSSLKASDTAMYFCARQRTFYYDSSDYSDYWGQGTLVTVSS
VL: DIQMTQSPSSVSASVGDRVTITCRASQGISSWLAWYQQKPGKAPKLLIYAASSLQRGVPSRFSGSGSGTDFTLTISSLQPEDFATYFCGQADSFPRTFGQGTKLEIK
As for B6, the Binding Signal (fold over 6E7 parental antibody) with human TREM2 (human) [1] was 3.35 fold; with human TREM2 (human) [2], 3.63 fold; in the assay with human TREM2 (human) [3] it was 3.26 fold.

B7: 6E7 variant V1 (antibody, V domains shown)
VH: EVQLVQSGAEVKKPGESLKISCKGSGYSFTSSWIAWVRQMPGKGLEWMGIIYPGDSDTRYSPSFQGQVTISADKSISTAYLQWSSLKASDTAMYFCARSRTFYYDSSDYFDYWGQGTLVTVSS
VL: DIQMTQSPSSVSASVGDRVTITCRASQGISSWLAWYQQKPGKAPKLLIYAASSLTNGVPSRFSGSGSGTDFTLTISSLQPEDFATYFCQQADSYPRTFGQGTKLEIK
In the case of B7, the Binding Signal (fold over 6E7 parental antibody) with human TREM2 (human) [1] came out at 1.29 fold; in the assay with human TREM2 (human) [2], 1.92 fold; with human TREM2 (human) [3], 1.68 fold.

B8: 6E7 variant V41 (antibody, V domains shown)
VH: EVQLVQSGAEVKKPGESLKISCKGSGYSFTSYWIAWVRQMPGKGLEWMGTIYPGDSDTRYSPSFQGQVTISADKSISTAYLQWSSLKASDTAMYFCARQRTFYYDSSDYFDYWGQGTLVTVSS
VL: DIQMTQSPSSVSASVGDRVTITCRASQGISSWLAWYQQKPGKAPKLLIYAASSLQNGVPSRFSGSGSGTDFTLTISSLQPEDFATYFCQQADSFPRTFGQGTKLEIK
On to B8, for which the Binding Signal (fold over 6E7 parental antibody) is 0.58 fold in the assay with human TREM2 (human) [1], 1.72 fold in the assay with human TREM2 (human) [2] and 1.74 fold with human TREM2 (human) [3].

B9: 6E7 variant V40 (antibody, V domains shown)
VH: EVQLVQSGAEVKKPGESLKISCKGSGYSFGSYWIAWVRQMPGKGLEWMGIIYPGDSDVRYSPSFQGQVTISADKSISTAYLQWSSLKASDTAMYFCARQRTFYYDSSDYSDYWGQGTLVTVSS
VL: DIQMTQSPSSVSASVGDRVTITCRASQGISSWLAWYQQKPGKAPKLLIYAASSLQLGVPSRFSGSGSGTDFTLTISSLQPEDFATYFCQQADRFPRTFGQGTKLEIK
In the case of B9, the Binding Signal (fold over 6E7 parental antibody) with human TREM2 (human) [1] turned out to be 3.41 fold; in the assay with human TREM2 (human) [2], 4.16 fold; in the assay with human TREM2 (human) [3] it was 4.48 fold.

B10: 6E7 variant V62 (antibody, V domains shown)
VH: EVQLVQSGAEVKKPGESLKISCKGSGYSFGSYWIAWVRQMPGKGLEWMGIIYPGDSDTRYAPSFQGQVTISADKSISTAYLQWSSLKASDTAMYFCARQRTFYYDSSGYFDYWGQGTLVTVSS
VL: DIQMTQSPSSVSASVGDRVTITCRASQGISSWLAWYQQKPGKAPKLLIYAASSLQRGVPSRFSGSGSGTDFTLTISSLQPEDFATYFCGQADSFPRTFGQGTKLEIK
Take B10: the Binding Signal (fold over 6E7 parental antibody) with human TREM2 (human) [1] was 1.87 fold; with human TREM2 (human) [2], 2.89 fold; with human TREM2 (human) [3], 2.49 fold.

B11: 6E7 variant V39 (antibody, V domains shown)
VH: EVQLVQSGAEVKKPGESLKISCKGSGYSFGSYWIAWVRQMPGKGLEWMGIIYPGDSDTRYNPSFQGQVTISADKSISTAYLQWSSLKASDTAMYFCARGRTFYYDSSDYFDYWGQGTLVTVSS
VL: DIQMTQSPSSVSASVGDRVTITCRASQGISSWLAWYQQKPGKAPKLLIYAASSLVNGVPSRFSGSGSGTDFTLTISSLQPEDFATYFCQQADSSPRTFGQGTKLEIK
As to B11, the Binding Signal (fold over 6E7 parental antibody) with human TREM2 (human) [1] turned out to be 5.11 fold; with human TREM2 (human) [2] it was 5.81 fold; with human TREM2 (human) [3] it was 6.15 fold.

B12: 6E7 variant V50 (antibody, V domains shown)
VH: EVQLVQSGAEVKKPGESLKISCKGSGYSFGSYWIAWVRQMPGKGLEWMGVIYPGDSDTRYSPSFQGQVTISADKSISTAYLQWSSLKASDTAMYFCARQRTFYYDSSDYLDYWGQGTLVTVSS
VL: DIQMTQSPSSVSASVGDRVTITCRASQGISSWLAWYQQKPGKAPKLLIYAASSRQNGVPSRFSGSGSGTDFTLTISSLQPEDFATYFCQQADSLPRTFGQGTKLEIK
With B12, the values for the Binding Signal (fold over 6E7 parental antibody) with human TREM2 (human) [1], with human TREM2 (human) [2] and with human TREM2 (human) [3] were 3.39 fold, 4.16 fold and 4.1 fold, respectively.

B13: 6E7 variant V61 (antibody, V domains shown)
VH: EVQLVQSGAEVKKPGESLKISCKGSGYSFSSYWIAWVRQMPGKGLEWMGIIYPGDSDTRYNPSFQGQVTISADKSISTAYLQWSSLKASDTAMYFCARGRTFYYDSSDYFDYWGQGTLVTVSS
VL: DIQMTQSPSSVSASVGDRVTITCRASQGISSWLAWYQQKPGKAPKLLIYAASSLVNGVPSRFSGSGSGTDFTLTISSLQPEDFATYFCQQADSLPRTFGQGTKLEIK
B13: the Binding Signal (fold over 6E7 parental antibody) in the assay with human TREM2 (human) [1] is 3.63 fold; in the assay with human TREM2 (human) [2], 5.22 fold; in the assay with human TREM2 (human) [3], 5.08 fold.

B14: 6E7 variant V53 (antibody, V domains shown)
VH: EVQLVQSGAEVKKPGESLKISCKGSGYSFTSYWIAWVRQMPGKGLEWMGIIYPGDSDTRYSPHFQGQVTISADKSISTAYLQWSSLKASDTAMYFCARQRTFYYDSSDYFDYWGQGTLVTVSS
VL: DIQMTQSPSSVSASVGDRVTITCRASQGISSWLAWYQQKPGKAPKLLIYAASSLQNGVPSRFSGSGSGTDFTLTISSLQPEDFATYFCQQADSFPRTFGQGTKLEIK
On to B14, for which the Binding Signal (fold over 6E7 parental antibody) with human TREM2 (human) [1] amounted to 0.66 fold; with human TREM2 (human) [2], 1.17 fold; in the assay with human TREM2 (human) [3] it was 1.25 fold.

B15: 6E7 variant V63 (antibody, V domains shown)
VH: EVQLVQSGAEVKKPGESLKISCKGSGYSFRSYWIAWVRQMPGKGLEWMGIIYPGDSDTRYSPSFQGQVTISADKSISTAYLQWSSLKASDTAMYFCARSRTFYYDSSDYFDYWGQGTLVTVSS
VL: DIQMTQSPSSVSASVGDRVTITCRASQGISSWLAWYQQKPGKAPKLLIYAASSLQRGVPSRFSGSGSGTDFTLTISSLQPEDFATYFCQQADRFPRTFGQGTKLEIK
B15: the Binding Signal (fold over 6E7 parental antibody) was found to be 4.91 fold with human TREM2 (human) [1], 3.71 fold with human TREM2 (human) [2] and 3.76 fold in the assay with human TREM2 (human) [3].

B16: 6E7 variant V49 (antibody, V domains shown)
VH: EVQLVQSGAEVKKPGESLKISCKGSGYSFNSYWIAWVRQMPGKGLEWMGTIYPGDSDTRLSPSFQGQVTISADKSISTAYLQWSSLKASDTAMYFCARSRTFYYDSSDYFDYWGQGTLVTVSS
VL: DIQMTQSPSSVSASVGDRVTITCRASQGISSWLAWYQQKPGKAPKLLIYAASSRQNGVPSRFSGSGSGTDFTLTISSLQPEDFATYFCQQADSYPRTFGQGTKLEIK
Turning to B16, the Binding Signal (fold over 6E7 parental antibody) amounted to 5.02 fold with human TREM2 (human) [1], 6.58 fold with human TREM2 (human) [2] and 6.51 fold with human TREM2 (human) [3].
